In patent US20210170043A1, “DC-SIGN ANTIBODY CONJUGATES COMPRISING STING AGONISTS” (NOVARTIS AG, priority 2018, published 2021):

Legend:
Format in all cases: in vivo, mouse
[1] = test system: transgenic mice expressing human DC-SIGN gene (Tg+); assay: Splenic dendritic cell activation in human DC-SIGN transgenic mice, flow cytometry; settings: 24 hours post dose
Description: Blood was collected at 6 hours post dose to analyze plasma cytokine and chemokine levels and spleens were analyzed at 24 hours post dose to look at dendritic cell activation.
Spleens were harvested 24 hours post dose and analyzed by flow cytometry to look at CD11c+ dendritic cells.
Tumors and/or spleens were extracted at the timepoints indicated from animals. Spleens were processed into a single cell suspension using glass slides and passed through a 100 micron mesh filter. Spleens were lysed in 1 mL of ACK lysis buffer (Life Technologies) for 5 minutes at room temperature. […]
1-2 million cells for each sample were then stained with a cocktail of antibodies to determine impact of the treatments on dendritic cells, myeloid cells and T cells. […] After staining, cells were evaluated on the BD LSRFortessa™ cell analyzer (BD Biosciences, San Jose, Calif.). […]

[2] = test system: tumor and splenic immune cells; assay: Flow cytometry of spleen and tumor immune cells in tumor-bearing DC-SIGN transgenic mice (PDL1, T cell infiltration and activation); settings: Tg+ mice
Excerpt: FIGS. 19A-19B show exemplary data on DC-SIGN immunoconjugates inducing upregulation of surface PDL1.
FIGS. 20A-20F show exemplary data on DC-SIGN immunoconjugates enhancing tumor T cell infiltration and T cell activation.

MC38 tumor cells = assay: Flow cytometry of tumors and spleens of MC38 tumor-bearing mice (PDL1, T cell infiltration); settings: Tg+ mice
Description: Spleens and tumors were analyzed 24 hours post dose by flow cytometry for PDL1 expression.
The effect of DC-SIGN immunoconjugate on tumor T cell infiltration was also evaluated. […] Mice After the mice were sacrificed 7 days after dosing, tumors were analyzed for T cell infiltration and activation by flow cytometry.
Tumors and/or spleens were extracted at the timepoints indicated from animals. Spleens were processed into a single cell suspension using glass slides and passed through a 100 micron mesh filter. Spleens were lysed in 1 mL of ACK lysis buffer (Life Technologies) for 5 minutes at room temperature. After lysis, cells were pelleted and resuspended in complete RMPI medium (RPMI Media 1640 with 10 percent fetal bovine serum (FBS), 0.05 mM 2-mercaptoethanol, 1 percent Penicillin-Streptomycin-Glutamine, 1 percent non-essential amino acids, 1 percent HEPES, 1 percent sodium pyruvate (all media reagents from Thermo Fisher). Tumors were extracted and put into digestion media in gentleMACS C tubes. Digestion media consists of Dulbecco's Modified Eagle Medium with 0.04 U/mL Dispase (StemCell Technologies), 0.1 mg/mL Collagenase P (Sigma) and 0.1 mg/mL DNase (Sigma). Tumors were incubated with in digestion media and then processed using the gentleMACS Dissociator (Miltenyi Biotec Inc, San Diego, Calif.) to obtain a single cell suspension. After processing, cells were filtered in […] filters (Miltenyi Biotec Inc).
1-2 million cells for each sample were then stained with a cocktail of antibodies to determine impact of the treatments on dendritic cells, myeloid cells and T cells. For FACS analysis, cells were stained with a fixable, amine reactive dye to label dead cells (Zombie UV™ fixable viability kit, Biolegend) in PBS. For antibody staining, indicated antibodies (see table below) were diluted in PBS with 0.5% Bovine serum albumin (BSA, from Sigma). Samples were incubated at 4° C. for 30 minutes and then washed 2 times with PBS with 0.5% BSA. Cells were fixed with stabilizing fixative (BD). For intracellular analysis of FoxP3 to evaluate T regulatory cells, cells were fixed and permeabilized with the FoxP3 transcription factor kit according to manufacturer's recommendations (Thermo Fisher). Cells were then stained with FoxP3 clone FJK-16s (Thermo Fisher). After staining, cells were evaluated on the BD LSRFortessa™ cell analyzer (BD Biosciences, San Jose, Calif.).
T cells were identified as CD3+ MHCII− cells. CD8+ T cells and CD4+ T cells were further defined as CD8 and CD4 positive, respectively. Tregs were identified from CD4+ T cells as being FoxP3+.
Dendritic cells were identified as MHCII high CD11c high cells and further gated on expression of CD8 and CD11 b to identify CD8+DC subsets and CD11b+ DCs where noted. Monocytic myeloid derived suppressor cells were identified as CD45+ cells in tumors that express CD11b, MHCII, F4/80, Ly6C and are intermediate for Ly6G.

[3] = test system: transgenic mice expressing human DC-SIGN gene (Tg+); assay: Plasma cytokine production in transgenic mice expressing human DC-SIGN (ELISA / MesoScaleDiscovery)
Description: FIGS. 5A-5E show exemplary data on DC-SIGN immunoconjugates inducing cytokine production in Tg+ mice. […] Plasma levels were analyzed by ELISA (IP-10 and IFNβ) or MesoScaleDiscovery Multiplex analysis (all other analytes). **** denotes p value of <0.0001 using an ANOVA with Tukey's test compared to Tg-2B2 hlgG1 DAPA C1 group.
Mice were bled 6 hours after dosing to collect plasma for analysis of circulating cytokine levels.

[4] = MC38, 1 mg/kg, 24 hours post dose

B1: 2B2 (DAPA) C1 (conjugate)
heavy: QVQLVQSGAEVKKPGASVKVSCKASGYTFTNYGINWVRQAPGQRLEWMGYIYIGNDYTEYNERFKGRVTITSDTSASTAYMELSSLRSEDTAVYYCARLYYGSSLYSYAMDYWGQGTTVTVSSASTKGPSVFPLAPSSKSTSGGTAALGCLVKDYFPCPVTVSWNSGALTSGVHTFPAVLQSSGLYSLSSVVTVPSSSLGTQTYICNVNHKPSNTKVDKRVEPKSCDKTHTCPPCPAPELLGGPSVFLFPPKPKDTLMISRTPEVTCVVVAVSHEDPEVKFNWYVDGVEVHNAKTKPREEQYNSTYRVVSVLTVLHQDWLNGKEYKCKVSNKALAAPIEKTISKAKGQPREPQVYTLPPSREEMTKNQVSLTCLVKGFYPCDIAVEWESNGQPENNYKTTPPVLDSDGSFFLYSKLTVDKSRWQQGNVFSCSVMHEALHNHYTQKSLSLSPGK
light: DIVMTQSPLSLPVTPGEPASISCRSSKSLLHSSGNTYLYWFLQKPGQSPQLLISRMSNLASGVPDRFSGSGSGTDFTLKISRVEAEDVGVYYCMQHLEYPYTFGGGTKVEIKRTVAAPSVFIFPPSDEQLKSGTASVVCLLNNFYPREAKVQWKVDNALQSGNSQESVTEQDSKDSTYSLSSTLTLSKADYEKHKVYACEVTHQGLSSPVTKSFNRGEC
For B1, the “CD86 upregulation on splenic dendritic cells” value ([1]; 1 mg/kg i.v. (Fab2 1.33 mg/kg, Fab 1.3 mg/kg)) was “significantly upregulated”, the “CD80 upregulation on splenic dendritic cells” value ([1]; 1 mg/kg i.v.) was “significantly upregulated” and the “surface PDL1 on splenic CD11c high dendritic cells” value ([2]; 1 mg/kg) was “significant upregulation”. The “surface PDL1 on tumor resident dendritic cells and mMDSCs” value ([2]; 1 mg/kg) was “significant upregulation”, the “CD3+ T cells in tumor” value ([2]; 24 and 48 hours post dosing) was “Increased” and the “T cell activation as measured by CD69 upregulation on CD4 and CD8 T cells in tumors” value ([2]; 24 hours post dose) was “Enhanced T cell activation”. For the same molecule, the “CD8+ T cells in tumors” value ([2]; day 7 post dose) was “significant increase”, the “FoxP3+ T regulatory cells in tumors” value ([2]; day 7 post dose) was “significant decrease” and the “infiltration of CD8 T cells in tumors” value ([2]; in combination with anti-PDL1) was “enhanced infiltration of CD8 T cells”. For the same molecule, the “surface PDL1 on splenic CD11c high dendritic cells” value (MC38 tumor cells; [4]) was “significant upregulation of surface PDL1”, the “surface PDL1 on tumor resident dendritic cells and mMDSCs” value (MC38 tumor cells; [4]) was “significant upregulation of surface PDL1” and the “tumor CD3+ T cells” value (MC38 tumor cells; MC38, 1 mpk, 24 and 48 hours post dosing) was “increased CD3+ T cells”. The “T cell activation as measured by CD69 upregulation on tumor CD4 and CD8 T cells” value (MC38 tumor cells; MC38, 1 mpk, 24 hours post dose) was “Enhanced T cell activation”, the “tumor CD8+ T cells” value (MC38 tumor cells; MC38, 1 mpk, day 7 post dose) was “significant increase in CD8+ T cells” and the “tumor FoxP3+ T regulatory cells” value (MC38 tumor cells; MC38, 1 mpk, day 7 post dose) was “significant decrease in FoxP3+T regulatory cells”. The “tumor infiltration of CD8 T cells, combination with anti-PDL1” value (MC38 tumor cells; MC38, conjugate plus anti-PDL1 clone 10F.9G2, 7 days after dosing) was “enhanced infiltration of CD8 T cells”, the “circulating plasma IL-12p70” value [3] was “increased” and the “circulating plasma IP-10” value [3] was “increased”. The “circulating plasma TNFα” value [3] was “increased”.
